Eleven molecules from patent US20200147235A1 (AbbVie / Abbott, published 2020) can be followed below.

B1: Recombinant anti-CD98 chimeric antibody chAb1 (antibody, human IgG1, V domains shown)
VH: EVKLVESGGGLVQPGGSLRLSCATSGFTFTDYYMSWVRQPPGKALEWLGFIRNPANVYTTEYSASVKGRFTISRDNSQSILYLQMNTLRAEDSATYYCARASYGNSEGWFAYWGQGTLVTVSA
VL: DIVMSQSPSSLAVSVGEKVTMSCKSSQNLLYNNNQKNYLAWYQQKPGQSPKLLIYWASTRESGVPDRFTGSGSGTDFTLTISSVKAEDLAVYYCQQYYSYPRTFGGGTKLEIK
B2: Recombinant anti-CD98 chimeric antibody chAb2 (antibody, human IgG1, V domains shown)
VH: B1 VH with T28N, P54K, V57G, N76D
VL: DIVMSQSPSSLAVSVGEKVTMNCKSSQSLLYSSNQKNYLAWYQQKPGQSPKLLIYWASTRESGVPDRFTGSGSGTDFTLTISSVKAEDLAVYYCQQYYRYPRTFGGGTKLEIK
B3: huAb15v2 (antibody, V domains shown)
VH: EVQLVESGGGVVQPGRSLRLSCAASGFTFSDYTMAWVRQAPGKGLEWVATIIYSGRGTYYRDAVKGRFTISRDNSKSTLYLQMNSLRAEDTAVYYCARQSDDTYYYWGYFDYWGQGTMVTVSS
VL: DIVMTQSPDSLAVSLGERATINCKSSQSLLFSGNQKNYLAWYQQKPGQSPKLLIYWASTRQSGVPDRFSGSGSGTDFTLTIRSLQAEDVAIYYCQQYYDVPYTFGQGTKLEIK
notes: Humanized, further engineered clone of chAb15, converted to IgG and expressed as a full-length antibody
B4: huAb15v5 (antibody, V domains shown)
VH: B3 VH with S54T
VL: B3 VL with D99S, V100S
notes: as for B3
B5: huAb15v1 (antibody, V domains shown)
VH: B3 VH with D102H
VL: B3 VL
notes: as for B3
B6: huAb15v3 (antibody, V domains shown)
VH: B3 VH
VL: B3 VL with D99G, V100S
notes: as for B3
B7: huAb15v7 (antibody, V domains shown)
VH: B3 VH with S54D, G55A
VL: B3 VL with D99G, V100S
notes: as for B3
B8: huAb15v4 (antibody, V domains shown)
VH: B3 VH with S54T
VL: B3 VL
notes: as for B3
B9: huAb15v6 (antibody, V domains shown)
VH: B3 VH with S54D, G55A
VL: B3 VL with D99S, V100S
notes: as for B3
B10: huAb3v1 (antibody, V domains shown)
VH: EVQLVESGGGLVQPGRSLRLSCTTSGFTFIDYYMSWVRQAPGKGLEWLGFIRNKANRYTTEYSASVKGRFTISRDNSKSILYLQMNSLKTEDTAVYYCTRDRPAWFVYWGQGTLVTVSS
VL: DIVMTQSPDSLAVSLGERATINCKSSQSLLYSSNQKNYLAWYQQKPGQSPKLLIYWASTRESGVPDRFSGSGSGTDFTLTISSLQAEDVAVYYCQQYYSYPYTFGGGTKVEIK
notes: Humanized, further engineered clone of chAb3, converted to IgG and expressed as a full-length antibody
B11: huAb3v2 (antibody, V domains shown)
VH: B10 VH with N56Y, R57G
VL: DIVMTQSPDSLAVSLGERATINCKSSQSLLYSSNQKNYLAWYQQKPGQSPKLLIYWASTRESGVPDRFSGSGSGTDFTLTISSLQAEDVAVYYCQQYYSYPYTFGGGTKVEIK
notes: as for B10

Where a chain is given by its changes, count along the chain named.

The first assay concerns the target T1, Cynomolgus monkey CD98 ECD with C-terminal His-tag (cynomolgus monkey, UniProt P08195 105-529 (human entry)).
T1 construct: also called cyCD98 ECD; recombinant cynomolgus monkey CD98 extracellular domain
T1 chain: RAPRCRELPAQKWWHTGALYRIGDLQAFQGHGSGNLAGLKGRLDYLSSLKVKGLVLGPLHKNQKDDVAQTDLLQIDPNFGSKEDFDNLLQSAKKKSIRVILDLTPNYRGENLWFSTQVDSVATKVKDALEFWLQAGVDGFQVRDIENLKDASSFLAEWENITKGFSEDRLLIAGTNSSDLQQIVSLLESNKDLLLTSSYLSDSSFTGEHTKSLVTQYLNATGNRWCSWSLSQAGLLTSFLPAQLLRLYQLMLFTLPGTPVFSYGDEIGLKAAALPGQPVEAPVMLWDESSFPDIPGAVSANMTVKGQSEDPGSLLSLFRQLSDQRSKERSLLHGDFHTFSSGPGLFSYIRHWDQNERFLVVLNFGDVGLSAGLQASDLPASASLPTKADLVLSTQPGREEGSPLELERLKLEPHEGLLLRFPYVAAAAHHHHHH
The assay is described as follows: SPR Biacore, anti-Fc capture of mAb, CD98 ECD analyte. The procedure:
(§1) The binding kinetics of these purified mouse and rat monoclonal anti-CD98 antibodies for purified recombinant CD98 protein (extracellular domain. ECD) were determined by surface plasmon resonance-based measurements made on Biacore T100/T200 instruments (GE Healthcare, Piscataway, N.J.) at 25° C. using an anti-Fc capture assay approach. Binding kinetic measurements were made in the assay buffer HBS-EP+: 10 mM Hepes, pH 7.4, 150 mM NaCl, 3 mM EDTA, 0.05% Tween 20). For example, approximately 8000 RU of anti-Fc (species specific) polyclonal antibody (Thermo Fisher Scientific Inc. Rockford, Ill.) diluted in 10 mM sodium acetate (pH 4.5) was directly immobilized across a CM5 research grade biosensor chip using a standard amine coupling kit according to manufacturer's instructions and procedures at 25 μg/ml. Unreacted moieties on the biosensor surface were blocked with ethanolamine. The test antibody to be captured as a ligand was diluted in running buffer to ˜0.5 μg/mL and injected over anti-Fc surface at a flow rate of 10 μL/min, CD98 binding and dissociation were observed under a continuous flow rate of 80 μL/min. Human and cynomolgus monkey CD98 ECDs, both with a C-terminal His-tag, are used for this study (Table 3). After each cycle the anti-Fc capture surface was regenerated using 10 mM Glycine-HCl, pH 1.5. During the assay, all measurements were referenced against the capture surface alone (i.e., with no captured test antibody) and buffer-only injections (no antigen) were used for double referencing. For kinetic analysis, rate equations derived from the 1:1 Langmuir binding model were fitted simultaneously, globally and with mass transfer term included to multiple referenced antigen binding curves using Biacore T100T200 Evaluation software.
(§2) Briefly, binding kinetics of anti-CD98 chimera mAbs for human and cynomolgus CD98 ECDs were determined by surface plasmon resonance-based measurements as described in Example 4.
(Surface plasmon resonance follows binding to a sensor surface in real time, without labels.)
Broadly, the Kd is the free concentration of one partner at which half of the binding sites on the other are occupied at equilibrium, for simple one-to-one binding. Usually koff stands for a measure of how fast the partners let go of each other. As usually defined, the kon is the second-order rate constant of association. With B1, the Kd was determined as 0.8 nM, the koff stood at 2.2e-05 s⁻¹ and the kon came out at 28000 M⁻¹ s⁻¹.
B2 had a dissociation constant Kd of 58 nM, a koff of 0.0011 s⁻¹ and a kon of 19000 M⁻¹ s⁻¹.

The target of another assay is T2, Human CD98 ECD with C-terminal His-tag (human, UniProt P08195 105-529).
T2 construct: also called huCD98 ECD; recombinant human CD98 extracellular domain
T2 sequence: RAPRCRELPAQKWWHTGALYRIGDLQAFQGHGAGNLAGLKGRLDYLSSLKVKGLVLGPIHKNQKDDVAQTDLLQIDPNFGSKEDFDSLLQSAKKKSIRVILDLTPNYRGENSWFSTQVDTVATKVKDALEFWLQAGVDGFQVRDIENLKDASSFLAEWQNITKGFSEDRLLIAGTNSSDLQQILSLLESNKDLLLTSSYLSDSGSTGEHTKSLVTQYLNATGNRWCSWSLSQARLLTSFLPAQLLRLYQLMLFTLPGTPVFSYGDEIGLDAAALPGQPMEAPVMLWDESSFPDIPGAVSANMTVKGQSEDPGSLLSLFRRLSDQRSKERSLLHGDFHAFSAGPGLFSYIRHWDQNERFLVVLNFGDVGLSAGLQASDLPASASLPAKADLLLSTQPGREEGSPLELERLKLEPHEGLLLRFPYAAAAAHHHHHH
The description is as above. As to the method:
as §1, §2
B1: the Kd stood at 0.21 nM, the koff turned out to be 1.5e-05 s⁻¹ and the kon turned out to be 68000 M⁻¹ s⁻¹.
Regarding B2, the Kd stood at 1.6 nM, the koff was 9.6e-05 s⁻¹ and the kon amounted to 59000 M⁻¹ s⁻¹.

A further assay deals with T3, Cynomolgus monkey CD98 ECD with C-terminal His-tag (cynomolgus monkey, UniProt P08195 105-529 (human entry)).
T3 construct: The entry includes the linker and the polyhistidine tag; also called cyCD98 ECD
T3 chain: T1 chain
Nature of the assay: SPR (Biacore), antibody captured on anti-Fc surface, CD98 ECD in solution. The procedure:
as §1
(§3) The binding kinetics of the recombinant anti-CD98 chimeric antibodies for purified recombinant CD98 protein (extracellular domain, ECD) were determined by surface plasmon resonance-based measurements, as described in the Example 4.
With B3, binding was put at a Kd of 2.3 nM, the koff was found to be 4.8e-05 s⁻¹ and the kon was 21000 M⁻¹ s⁻¹.
Molecule B4 displayed a dissociation constant (Kd) of 11 nM, a koff of 0.00018 s⁻¹ and an on-rate constant (kon) of 17000 M⁻¹ s⁻¹.
Regarding B5, the Kd worked out at 1 nM, the koff stood at 2.6e-05 s⁻¹ and the kon worked out at 26000 M⁻¹ s⁻¹.
For B6, the Kd was determined as 7.6 nM, the off-rate (koff) stood at 0.00014 s⁻¹ and the kon is 18000 M⁻¹ s⁻¹.
Consider B7, for which binding was put at a Kd of 30 nM, the koff was found to be 0.00043 s⁻¹ and the kon came out at 14000 M⁻¹ s⁻¹.
B8 registered a Kd of 2.6 nM, a koff of 5e-05 s⁻¹ and an on-rate (kon) of 20000 M⁻¹ s⁻¹.
Molecule B9 came in with a Kd of 34 nM, a koff of 0.00049 s⁻¹ and a kon of 14000 M⁻¹ s⁻¹.
B10 came in with a Kd of 23 nM, a koff of 0.00092 s⁻¹ and a kon of 40000 M⁻¹ s⁻¹.
B11 came in with a Kd of 17 nM, an off-rate (koff) of 0.00049 s⁻¹ and a kon of 29000 M⁻¹ s⁻¹.

The target of the next assay is T4, Human CD98 ECD with C-terminal His-tag (human, UniProt P08195 105-529).
T4 construct: The entry includes the linker and the polyhistidine tag; also called huCD98 ECD
T4 sequence: T2 sequence
The assay is described as above. The procedure:
as §1, §3
In turn, B3 gave an equilibrium dissociation constant (Kd) of 1.1 nM, a koff of 4.6e-05 s⁻¹ and a kon of 42000 M⁻¹ s⁻¹.
B4 registered a dissociation constant Kd of 3.1 nM, a koff of 0.00013 s⁻¹ and a kon of 41000 M⁻¹ s⁻¹.
Molecule B5 came in with a Kd of 0.43 nM, a koff of 2.3e-05 s⁻¹ and a kon of 53000 M⁻¹ s⁻¹.
B6: binding was put at a Kd of 2 nM, the koff amounted to 8.5e-05 s⁻¹ and the kon stood at 44000 M⁻¹ s⁻¹.
The molecule B7 yielded a Kd of 5.9 nM, a koff of 0.00021 s⁻¹ and an on-rate constant (kon) of 35000 M⁻¹ s⁻¹.
In the case of B8, the Kd is 0.81 nM, the koff was 2.8e-05 s⁻¹ and the kon stood at 35000 M⁻¹ s⁻¹.
Molecule B9 yielded a Kd of 6.7 nM, a koff of 0.00026 s⁻¹ and a kon of 38000 M⁻¹ s⁻¹.
Take B10: the Kd worked out at 13 nM, the koff is 0.0023 s⁻¹ and the kon was 180000 M⁻¹ s⁻¹.
On the same counts, the results for B11 are 4.9 nM, 0.0013 s⁻¹ and 260000 M⁻¹ s⁻¹.

For the next assay, the target named is T5, Cynomolgus monkey CD98 expressed on stably transfected 3T12 cells (cynomolgus monkey).
T5 construct: whole, on cells; also called cyCD98
The assay is described as follows: flow cytometry, 3T12 cells expressing cynomolgus CD98. As to the method:
(§4) Briefly, binding kinetics of anti-CD98 chimera mAbs for human and cynomolgus CD98 ECDs were determined by surface plasmon resonance-based measurements as described in Example 4. Table 10 reported the association and dissociation rate constants for CD98 binding, kₐ (M⁻¹s⁻¹) and kd (s⁻¹), and the equilibrium dissociation constant KD (M) of the interaction between antibodies and the target antigen. Binding of anti-CD98 chimera mAbs for CD98 on cell surface was evaluated by flow cytometry against CHO-K1 cell line stably transfected to express human CD98 and 3T12 cell line stably transfected to express cynomolgus monkey CD98.
(In general: A flow cytometer gives signals particle by particle.)
Broadly, the EC50 is the midpoint of the concentration-response curve. The molecule B1 had a half-maximal effective concentration (EC50) of 9.86 nM.
In turn, B2 registered an EC50 of 12.7 nM.

The target of a further assay is T6, Human CD98 expressed on stably transfected CHO-K1 cells (human).
T6 construct: also called huCD98; CD98 heavy chain
T6 chain: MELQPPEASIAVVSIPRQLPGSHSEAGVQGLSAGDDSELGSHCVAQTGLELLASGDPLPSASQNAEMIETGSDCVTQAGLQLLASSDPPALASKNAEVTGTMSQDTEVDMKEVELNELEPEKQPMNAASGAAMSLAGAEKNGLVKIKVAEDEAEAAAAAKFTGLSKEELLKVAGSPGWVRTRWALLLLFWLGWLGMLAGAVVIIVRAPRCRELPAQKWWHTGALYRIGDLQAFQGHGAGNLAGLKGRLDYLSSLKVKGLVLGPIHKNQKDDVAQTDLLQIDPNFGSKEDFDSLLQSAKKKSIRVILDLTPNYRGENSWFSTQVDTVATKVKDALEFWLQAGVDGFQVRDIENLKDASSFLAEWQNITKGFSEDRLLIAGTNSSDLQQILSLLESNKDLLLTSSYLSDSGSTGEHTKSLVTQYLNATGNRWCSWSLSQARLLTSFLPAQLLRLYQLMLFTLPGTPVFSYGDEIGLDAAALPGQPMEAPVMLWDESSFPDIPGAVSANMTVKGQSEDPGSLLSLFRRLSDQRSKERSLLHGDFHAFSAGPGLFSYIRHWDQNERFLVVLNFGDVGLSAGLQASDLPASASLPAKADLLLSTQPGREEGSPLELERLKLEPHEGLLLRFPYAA
The assay is described as follows: flow cytometry, CHO-K1 cells expressing human CD98. As to the method:
as §4
B1 gave an EC50 of 1.67 nM.
B2 registered an EC50 of 3.84 nM.
